Assay results as given in patent publication CN114539420A (SUZHOU INSTITUTE OF RESEARCH OF PSEUDO UNIV, dated 2022).

Target: T1, 重组人B7-H3蛋白 (recombinant human B7-H3-ECD protein, 11188-H08H, SinoBiological) (human, UniProt Q5ZPR3 29-466)
T1 construct: extracellular domain; Bought protein; The EC50 sentence says only 'human B7-H3 protein'; also called 人B7-H3重组蛋白; 重组人B7-H3-ECD蛋白
T1 sequence (looked up): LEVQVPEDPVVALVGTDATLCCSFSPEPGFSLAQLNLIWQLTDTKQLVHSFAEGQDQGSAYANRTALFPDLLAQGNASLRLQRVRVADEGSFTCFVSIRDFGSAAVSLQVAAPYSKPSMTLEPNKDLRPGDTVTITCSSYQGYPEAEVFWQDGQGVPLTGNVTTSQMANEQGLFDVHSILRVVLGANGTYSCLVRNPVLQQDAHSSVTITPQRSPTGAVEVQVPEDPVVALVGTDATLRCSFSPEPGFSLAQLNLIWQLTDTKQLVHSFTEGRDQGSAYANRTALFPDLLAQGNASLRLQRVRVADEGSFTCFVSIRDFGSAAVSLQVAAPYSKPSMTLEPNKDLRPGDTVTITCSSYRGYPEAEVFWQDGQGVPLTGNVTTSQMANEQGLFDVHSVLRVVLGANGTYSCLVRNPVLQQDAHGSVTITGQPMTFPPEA
Experiment: ELISA on recombinant human B7-H3 protein (Fig. 2a, n=3)

B1: 嵌合单克隆抗体10-2#c (chimeric anti-B7-H3 monoclonal antibody) (antibody, human IgG1, V domains shown)
VH: EVQLQQSGPALVKPGTSVKISCKTSGYTFTEYIIHWVKQSHGKSLEWIGGINPNNGGTSYNQKFKGKATLTVDKSSSTAYMELRSLTSEDSAVYYCASRLAPSTAGFAYWGQGTMLTVSS
VL: DIVLTQTPAIMSASPGEKVTMTCRASSSVSYMHWYQQRSGTSPKTWIYDTSKLASGVPGRFSGSGSGTSYSLTISIMEAEDAATYYCQQWSSNPPTFGGGTKLEIK
notes: also called 抗B7-H3单克隆抗体; 嵌合抗体10-2#c
  EC50: 2.22 ng/mL
